# Laboratory results taken from patent publication US20060252677A1.
# Values joined by “and” are separate entries in the source; they are usually repeats but may differ in a detail not shown here. Equal entries are not always repeated.
# T1: Protein-X (novel PSD) expressed from injected RNA in Xenopus oocytes (human) (UniProt Q5T2T1)
# T1 sequence: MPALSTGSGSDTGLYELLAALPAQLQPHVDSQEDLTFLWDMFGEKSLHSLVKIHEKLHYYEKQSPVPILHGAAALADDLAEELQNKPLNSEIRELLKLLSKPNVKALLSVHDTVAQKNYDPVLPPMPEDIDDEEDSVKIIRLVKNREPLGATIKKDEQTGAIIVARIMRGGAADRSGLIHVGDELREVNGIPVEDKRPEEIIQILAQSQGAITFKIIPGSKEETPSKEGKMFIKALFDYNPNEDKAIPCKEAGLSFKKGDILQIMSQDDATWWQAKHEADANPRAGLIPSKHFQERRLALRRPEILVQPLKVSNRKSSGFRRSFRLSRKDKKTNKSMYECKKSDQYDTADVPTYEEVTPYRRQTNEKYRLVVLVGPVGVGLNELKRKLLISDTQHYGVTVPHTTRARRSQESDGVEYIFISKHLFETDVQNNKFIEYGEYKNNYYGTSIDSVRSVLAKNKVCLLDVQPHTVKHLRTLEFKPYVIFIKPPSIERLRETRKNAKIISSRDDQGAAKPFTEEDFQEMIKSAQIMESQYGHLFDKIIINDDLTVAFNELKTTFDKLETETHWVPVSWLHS
# Biological target: T1, Protein-X (novel PSD) expressed from injected RNA in Xenopus oocytes (human)
# Experiment: cell-based or functional assay
binder,measurement,value
PJ01087 protein (Protein-Y) expressed from injected RNA in Xenopus oocytes (protein) MRGYHGDRGSHPRPARFADQQHMDVGPAARAPYLLGSREAFSTEPRFCAPRAGLGHISPEGPLSLSEGPSVGPEGGPAGAGVGGGSSTFPRMYPGQGPFDTCEDCVGHPQGKGAPRLPPTLLDQFEKQLPVQQDGFHTLPYQRGPAGAGPGPAPGTGTAPEPRSESPSRIRHLVHSVQKLFAKSHSLEAPGKRDYNGPKAEGRGGSGGDSYPGPGSGGPHTSHHHHHHHHHHHHQSRHGKRSKSKDRKGDGRHQAKSTGWWSSDDNLDSDSGFLAGGRPPGEPGGPFCLEGPDGSYRDLSFKGRSGGSEGRCLACTGMSMSLDGQSVKRSAWHTMMVSQGRDGYPGAGPGKGLLGPETKAKARTYHYLQVPQDDWGGYPTGGKDGEIPCRRMRSGSYIKAMGDEESGDSDGSPKTSPKAVARRFTTRRSSSVDQARINCCVPPRIHPRSSIPGYSRSLTTGQLSDELNQQLEAVCGSVFGELESQAVDALDLPGCFRMRSHSYLRAIQAGCSQDDDCLPLLATPAAVSGRPGSSFNFRKAPPPIPPGSQAPPRISITAQSSTDSAHESFTAAEGPARRCSSADGLDGPAMGARTLELAPVPPRASPKPPTLIIKTIPGREELRSLARQRKWRPSIGVQVETISDSDTENRSRREFHSIGVQVEEDKRRARFKRSNSVTAGVQADLELEGLAGLATVATEDKALQFGRSFQRHASEPQPGPRAPTYSVFRTVHTQGQWAYREGYPLPYEPPATDGSPGPAPAPTPGPGAGRRDSWIERGSRSLPDSGRASPCPRDGEWFIKMLRAEVEKLEHWCQQMEREAEDYELPEEILEKIRSAVGSTQLLLSQKVQQFFRLCQQSMDPTAFPVPTFQDLAGFWDLLQLSIEDVTLKFLELQQLKANSWKLLEPKEEKKVPPPIPKKPLRGRGVPVKERSLDSVDRQRQEARKRLLAAKRAASFRHSSATESADSIEIYIPEAQTRL,"current response to the ligand stimulation of the NMDA receptor in oocytes, against Protein-X alone",7 times and 8 times
